Source: the supplement of paper PMC9112550, “Optimization of the antimicrobial peptide Bac7 by deep mutational scanning” (BMC Biology, 2022)

test system: Escherichia coli TOP10; experiment: shrunken log2 fold change of peptide-encoding DNA abundance (4.5 h post-induction vs induction); higher = less antimicrobial activity (less host growth inhibition); details: time post-induction: 4.5 h; library: site-saturation at positions 5, 18, 19, 20
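Note: peptides expressed intracellularly from a pBAD plasmid library in pooled LB shake-flask culture, induced with 0.3% L-arabinose, DNA abundance read by NGS, three biological replicates, DESeq2 with apeglm shrinkage.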

Row | Sequence | shrunken log2 fold change
1 | RRIRLRPPRLPRPRPRPKDIPRP | -0.23
2 | RRIRLRPPRLPRPRPRPKDMPRP | -0.0444
3 | RRIRLRPPRLPRPRPRPKEGPRP | -0.0145
4 | RRIRLRPPRLPRPRPRPKETPRP | 0.137
5 | RRIRLRPPRLPRPRPRPKFHPRP | -0.174
6 | RRIRLRPPRLPRPRPRPKFNPRP | -0.437
7 | RRIRLRPPRLPRPRPRPKFPPRP | -0.26
8 | RRIRLRPPRLPRPRPRPKFYPRP | -0.369
9 | RRIRLRPPRLPRPRPRPKGNPRP | -0.0951
10 | RRIRLRPPRLPRPRPRPKGQPRP | -0.11
11 | RRIRLRPPRLPRPRPRPKLDPRP | -0.0265
12 | RRIRLRPPRLPRPRPRPKLNPRP | -0.182
13 | RRIRLRPPRLPRPRPRPKMVPRP | -0.146
14 | RRIRLRPPRLPRPRPRPKNDPRP | -0.563
15 | RRIRLRPPRLPRPRPRPKNMPRP | -0.448
16 | RRIRLRPPRLPRPRPRPKNVPRP | -0.124
17 | RRIRLRPPRLPRPRPRPKSHPRP | -0.261
18 | RRIRLRPPRLPRPRPRPKSVPRP | 0.0155
19 | RRIRLRPPRLPRPRPRPKTYPRP | -0.511
20 | RRIRLRPPRLPRPRPRPKWFPRP | 0.154
21 | RRIRLRPPRLPRPRPRPKYFPRP | -0.269
22 | RRIRLRPPRLPRPRPRPLANPRP | -0.00613
23 | RRIRLRPPRLPRPRPRPLASPRP | 0.177
24 | RRIRLRPPRLPRPRPRPLAYPRP | -0.264
25 | RRIRLRPPRLPRPRPRPLCAPRP | 0.11

Row | Sequence | shrunken log2 fold change
26 | RRIRLRPPRLPRPRPRPLDCPRP | 0.0132
27 | RRIRLRPPRLPRPRPRPLDGPRP | -0.0562
28 | RRIRLRPPRLPRPRPRPLGIPRP | -0.199
29 | RRIRLRPPRLPRPRPRPLGKPRP | -0.0194
30 | RRIRLRPPRLPRPRPRPLHLPRP | -0.21
31 | RRIRLRPPRLPRPRPRPLIAPRP | -0.498
32 | RRIRLRPPRLPRPRPRPLIFPRP | -0.656
33 | RRIRLRPPRLPRPRPRPLLAPRP | 0.188
34 | RRIRLRPPRLPRPRPRPLMNPRP | -0.253
35 | RRIRLRPPRLPRPRPRPLPGPRP | 0.781
36 | RRIRLRPPRLPRPRPRPLPPPRP | 0.678
37 | RRIRLRPPRLPRPRPRPLQVPRP | 0.109
38 | RRIRLRPPRLPRPRPRPLRQPRP | 0.385
39 | RRIRLRPPRLPRPRPRPLTVPRP | 0.127
40 | RRIRLRPPRLPRPRPRPLVHPRP | -0.0413
41 | RRIRLRPPRLPRPRPRPLWHPRP | 0.0621
42 | RRIRLRPPRLPRPRPRPLYWPRP | -0.372
43 | RRIRLRPPRLPRPRPRPMARPRP | 0.0339
44 | RRIRLRPPRLPRPRPRPMAYPRP | -0.0987
45 | RRIRLRPPRLPRPRPRPMCVPRP | -0.231
46 | RRIRLRPPRLPRPRPRPMDEPRP | -0.119
47 | RRIRLRPPRLPRPRPRPMESPRP | -0.0323
48 | RRIRLRPPRLPRPRPRPMFEPRP | -0.00818
49 | RRIRLRPPRLPRPRPRPMFFPRP | -0.381
50 | RRIRLRPPRLPRPRPRPMFPPRP | -0.281

Row | Sequence | shrunken log2 fold change
51 | RRIRLRPPRLPRPRPRPMGAPRP | 0.316
52 | RRIRLRPPRLPRPRPRPMGFPRP | -0.159
53 | RRIRLRPPRLPRPRPRPMGMPRP | 0.0771
54 | RRIRLRPPRLPRPRPRPMGQPRP | 0.0212
55 | RRIRLRPPRLPRPRPRPMHLPRP | -0.0248
56 | RRIRLRPPRLPRPRPRPMHPPRP | -0.0318
57 | RRIRLRPPRLPRPRPRPMKEPRP | -0.019
58 | RRIRLRPPRLPRPRPRPMKLPRP | -0.187
59 | RRIRLRPPRLPRPRPRPMLEPRP | 0.0968
60 | RRIRLRPPRLPRPRPRPMQHPRP | 0.256
61 | RRIRLRPPRLPRPRPRPMREPRP | 1.25
62 | RRIRLRPPRLPRPRPRPMTEPRP | -0.0455
63 | RRIRLRPPRLPRPRPRPMTTPRP | 0.0748
64 | RRIRLRPPRLPRPRPRPMVGPRP | -0.135
65 | RRIRLRPPRLPRPRPRPMVWPRP | 0.0457
66 | RRIRLRPPRLPRPRPRPMWNPRP | -0.299
67 | RRIRLRPPRLPRPRPRPMYKPRP | -0.44
68 | RRIRLRPPRLPRPRPRPMYWPRP | -0.115
69 | RRIRLRPPRLPRPRPRPNCKPRP | -0.143
70 | RRIRLRPPRLPRPRPRPNEGPRP | 0.00337
71 | RRIRLRPPRLPRPRPRPNEHPRP | -0.175
72 | RRIRLRPPRLPRPRPRPNFKPRP | -0.206
73 | RRIRLRPPRLPRPRPRPNGEPRP | 0.00184
74 | RRIRLRPPRLPRPRPRPNGLPRP | -0.0171
75 | RRIRLRPPRLPRPRPRPNHNPRP | -0.726

Row | Sequence | shrunken log2 fold change
76 | RRIRLRPPRLPRPRPRPNICPRP | -0.132
77 | RRIRLRPPRLPRPRPRPNKSPRP | -0.354
78 | RRIRLRPPRLPRPRPRPNPCPRP | -0.398
79 | RRIRLRPPRLPRPRPRPNPKPRP | -0.0548
80 | RRIRLRPPRLPRPRPRPNRRPRP | 0.0365
81 | RRIRLRPPRLPRPRPRPNRSPRP | -0.0205
82 | RRIRLRPPRLPRPRPRPNSCPRP | 0.00169
83 | RRIRLRPPRLPRPRPRPNSMPRP | -0.0473
84 | RRIRLRPPRLPRPRPRPNTKPRP | -0.543
85 | RRIRLRPPRLPRPRPRPNVNPRP | -0.28
86 | RRIRLRPPRLPRPRPRPNYMPRP | -0.251
87 | RRIRLRPPRLPRPRPRPNYPPRP | -0.156
88 | RRIRLRPPRLPRPRPRPNYTPRP | -0.91
89 | RRIRLRPPRLPRPRPRPPALPRP | 0.696
90 | RRIRLRPPRLPRPRPRPPCAPRP | 0.457
91 | RRIRLRPPRLPRPRPRPPDLPRP | 0.169
92 | RRIRLRPPRLPRPRPRPPDPPRP | 0.584
93 | RRIRLRPPRLPRPRPRPPDYPRP | -0.199
94 | RRIRLRPPRLPRPRPRPPECPRP | -0.29
95 | RRIRLRPPRLPRPRPRPPEHPRP | 0.188
96 | RRIRLRPPRLPRPRPRPPFMPRP | 0.086
97 | RRIRLRPPRLPRPRPRPPGEPRP | 0.196
98 | RRIRLRPPRLPRPRPRPPGRPRP | 0.66
99 | RRIRLRPPRLPRPRPRPPHCPRP | 0.177
100 | RRIRLRPPRLPRPRPRPPHMPRP | -0.0106

Row | Sequence | shrunken log2 fold change
101 | RRIRLRPPRLPRPRPRPPIEPRP | -0.424
102 | RRIRLRPPRLPRPRPRPPIFPRP | -0.0913
103 | RRIRLRPPRLPRPRPRPPIGPRP | 0.142
104 | RRIRLRPPRLPRPRPRPPLLPRP | 0.158
105 | RRIRLRPPRLPRPRPRPPLWPRP | 0.447
106 | RRIRLRPPRLPRPRPRPPNLPRP | -0.321
107 | RRIRLRPPRLPRPRPRPPPMPRP | 0.966
108 | RRIRLRPPRLPRPRPRPPQRPRP | 0.26
109 | RRIRLRPPRLPRPRPRPPSCPRP | 0.341
110 | RRIRLRPPRLPRPRPRPPSLPRP | 0.0267
111 | RRIRLRPPRLPRPRPRPPVYPRP | 0.0309
112 | RRIRLRPPRLPRPRPRPPWDPRP | 0.344
113 | RRIRLRPPRLPRPRPRPPWEPRP | 0.192
114 | RRIRLRPPRLPRPRPRPPYKPRP | -0.292
115 | RRIRLRPPRLPRPRPRPPYYPRP | -0.292
116 | RRIRLRPPRLPRPRPRPQARPRP | 0.169
117 | RRIRLRPPRLPRPRPRPQCFPRP | -0.0127
118 | RRIRLRPPRLPRPRPRPQCMPRP | 0.0865
119 | RRIRLRPPRLPRPRPRPQCPPRP | -0.266
120 | RRIRLRPPRLPRPRPRPQGHPRP | 0.137
121 | RRIRLRPPRLPRPRPRPQGSPRP | -0.0921
122 | RRIRLRPPRLPRPRPRPQHKPRP | -0.0846
123 | RRIRLRPPRLPRPRPRPQHPPRP | -0.132
124 | RRIRLRPPRLPRPRPRPQKCPRP | -0.222
125 | RRIRLRPPRLPRPRPRPQKEPRP | 0.0466

Row | Sequence | shrunken log2 fold change
126 | RRIRLRPPRLPRPRPRPQKKPRP | -0.176
127 | RRIRLRPPRLPRPRPRPQKTPRP | -0.03
128 | RRIRLRPPRLPRPRPRPQLKPRP | -0.0336
129 | RRIRLRPPRLPRPRPRPQLWPRP | -0.195
130 | RRIRLRPPRLPRPRPRPQMMPRP | -0.371
131 | RRIRLRPPRLPRPRPRPQNFPRP | 0.0254
132 | RRIRLRPPRLPRPRPRPQNPPRP | -0.263
133 | RRIRLRPPRLPRPRPRPQNRPRP | -0.231
134 | RRIRLRPPRLPRPRPRPQQHPRP | -0.212
135 | RRIRLRPPRLPRPRPRPQRCPRP | 0.487
136 | RRIRLRPPRLPRPRPRPQRKPRP | 0.198
137 | RRIRLRPPRLPRPRPRPQRQPRP | 0.316
138 | RRIRLRPPRLPRPRPRPQRTPRP | 0.43
139 | RRIRLRPPRLPRPRPRPQSFPRP | -0.0139
140 | RRIRLRPPRLPRPRPRPQSMPRP | -0.197
141 | RRIRLRPPRLPRPRPRPQSSPRP | -0.419
142 | RRIRLRPPRLPRPRPRPQTLPRP | -0.0114
143 | RRIRLRPPRLPRPRPRPQVIPRP | -0.136
144 | RRIRLRPPRLPRPRPRPQVPPRP | -0.0408
145 | RRIRLRPPRLPRPRPRPQWWPRP | 0.491
146 | RRIRLRPPRLPRPRPRPQYIPRP | -0.189
147 | RRIRLRPPRLPRPRPRPRERPRP | 0.612
148 | RRIRLRPPRLPRPRPRPRHCPRP | 0.232
149 | RRIRLRPPRLPRPRPRPRHFPRP | -0.131
150 | RRIRLRPPRLPRPRPRPRHIPRP | 1.19
